These results are taken from patent publication US9938505B2, “Polypeptide composition and culture method for pluripotent stem cell using same” (FUJIFILM Corporation, priority 2013, dated 2018).

Data set [1] is described as follows: Aggregation after dialysis (removal of urea). The following applies: after stepwise dialysis against PBS, 1.5 M NaCl, 0.5 M L-arginine, 1 mM EDTA, pH 7.4. The class given is physicochemical. The method, then:
For RCP-1 to RCP-10 and RCP-17, each of the purified polypeptide solutions was dialyzed using SLIDE-A-LIZER (trade name, 3.5 K MWCO.). Basically, by using a dialysis buffer (PBS, 1.5 M NaCl, 0.5 M L-arginine, 1 mM EDTA, pH 7.4) as an outer dialysate, urea was removed by stepwise dialysis. The concentration of the end-product of dialysis was calculated from the absorbence at 280 nm by using NANODROP (trade name, Thermo Fisher Scientific Inc.).
Furthermore, the indices of hydrophobicity determined for each of the amino acids were summed up, the obtained value was divided by the number of the amino acids, and the outcome was determined as the GRAVY value (see Kyte J., Doolittle R. F. (1982), J. Mol. Biol, 157: 105-132). The GRAVY value is an index of the hydrophilicity and hydrophobicity of a polypeptide calculated from the degree of hydrophobicity of the amino acids contained in each polypeptide. The greater the GRAVY value, the more the polypeptide is hydrophobic, and the smaller the GRAVY value, the more the polypeptide is hydrophilic. The results are shown in Table 4. • Whether or not aggregation was occurred was evaluated based on the scale of G, A, and B as shown below. The results are summarized in Table 4. • G: The formation of an aggregate was not observed. • A: The formation of particles having a particle size of about 100 nm was observed. • B: The formation of an aggregation of particles having a particle size of equal to or greater than 1 mm was visually observed.

Data set [2] has as its system iPS cells. Nature of the data set: Growth evaluation, growth curves over 8 days. The data set is classed as cell-based, human. The following applies: FIG. 2. The method, then:
The iPS cells collected in the same manner as in <Cell adhesiveness evaluation 1> were seeded into a 96-well plate, onto which RCP-1, RCP-11, and natural human vitronectin were adsorbed, at a ratio of 250 cells/well and cultured for 8 days in a 5% CO2 incubator at 37° C. The number of adhesive cells after different days of culture was measured in the same manner as in <Cell adhesiveness evaluation 1>, thereby obtaining growth curves. […] In FIG. 2, a black rhombus indicates a case using RCP-1, and a black square indicates a case using RCP-11.
From the increase and decrease in the obtained number of cells, the doubling time was calculated. As a result, it was confirmed that it takes 46.4±2.1 hours for the number of cells to be doubled in a case where RCP-1 is used, and 67.7±2.1 hours in a case where RCP-11 is used.

Data set [3] has as its system iPS cells. Nature of the data set: Cell adhesiveness evaluation 3 (RCP-1 at 125 to 1,000 pmol/cm^2). The conditions noted are these: amount added equal to or greater than 125 pmol/cm^2. The data set is classed as cell-based, human. Here is the method:
The cell adhesiveness was evaluated in the same manner as in <Cell adhesiveness evaluation 1>, except that RCP-1 was used after the concentration thereof was adjusted to 125 pmol/cm^2 to 1,000 pmol/cm^2 by using PBS. In Table 9, the cell adhesion rate is expressed as relative value calculated by regarding a cell adhesion rate with respect to the culture vessel, onto which natural vitronectin is adsorbed at a concentration of 130 pmol/cm^2, as being 100. N=3.

Data set [4] concerns iPS cells. Nature of the data set: Evaluation of maintenance of undifferentiated state (colony form, NANOG staining). The following applies: FIGS. 4A to 4E; after culture for 1 month. The data set is classed as cell-based, human. The method, then: iPS cells collected in the same manner as in <Cell adhesiveness evaluation 1> were suspended in TeSR2. The iPS cells were seeded into 6-well plate (Tissue culture-treated, Falcon), onto which each of the samples 1, 2, 5, 6, and 7 used in <Cell adhesiveness evaluation 1> was adsorbed in the same manner as in <Cell adhesiveness evaluation 1>, and cultured in a CO2 incubator at 37° C. Except for the day after the seeding, the medium was replaced every day. In the same method as described above, the cells were subcultured every six days. FIGS. 3A to 3E show forms of the iPS cells cultured on each of the samples.
After being cultured for 1 month under the conditions described above, the cells were immobilized using 4% paraformaldehyde and treated with 1% Triton-X/PBS so as to enhance the membrane permeability. After the cells were subjected to a blocking treatment using an IMAGE IT SIGNAL ENHANCER (trade name, Invitrogen), an anti-human NANOG antibody (AF 1997, R&D Systems, Inc.), an ALEXA FLUOR 555 binding rabbit anti-goat IgG antibody (Invitrogen), and DAPI (Dojindo Molecular Technologies, Inc.) were added thereto for labeling, and the cells were imaged using a fluorescence microscope. FIGS. 4A to 4E show the fluorescence microscopic images.
FIGS. 3A and 4A show the iPS cells cultured on RCP-1; FIGS. 3B and 4B show the iPS cells cultured on RCP-11; FIGS. 3C and 4C show the iPS cells cultured on natural human vitronectin; FIGS. 3D and 4D show the iPS cells cultured on rLaminin-5; and FIGS. 3E and 4E show the iPS cells cultured on rLaminin-511. The scale bar in the images indicates […]. In FIGS. 3A to 3E, the images on the left side are full images of the colony, and the images on the right side are magnified images. In FIGS. 4A to 4E, the images on the left side are images of the cells stained with DAPI, and the images on the right side are images of the cells stained with an anti-NANOG antibody. The scale bar in FIGS. 3A to 4E indicates 200 μm.

B1: RCP-1: recombinant polypeptide SEQ ID NO: 14; human vitronectin positions 1-55, 269-459, methionine on N-terminal (protein)
chain: MDQESCKGRCTEGFNVDKKCQCDELCSYYQSCCTDYTAECKPQVTRGDVFTMPEDEPSQEECEGSSLSAVFEHFAMMQRDSWEDIFELLFWGRTSAGTRQPQFISRDWHGVPGQVDAAMAGRIYISGMAPRPSLAKKQRFRHRNRKGYRSQRGHSRGRNQNSRRPSRATWLSLFSSEESNLGANNYDDYRMDWLVPATCEPIQSVFFFSGDKYYRVNLRTRRVDTVDPPYPRSIAQYWLGCPAPGHL
modifications: Synthetic peptide RCP-1
As to B1, the Aggregation entry in data set [1] was “A (The formation of particles having a particle size of about 100 nm was observed.)”. For the same molecule, the “cell growth properties (in words)” value in the data set on iPS cells [2] is “higher cell growth properties compared to RCP-11”. For the same molecule, the “adhesiveness of iPS cells (in words)” value in the data set on iPS cells [3] is recorded as “equivalent to the cell adhesion rate of the natural vitronection”. For the same molecule, the “NANOG expression / maintenance of undifferentiated state” value in the data set with iPS cells [4] is recorded as “strongly expressed NANOG in the entirety of the colony”.

B2: RCP-11: recombinant polypeptide SEQ ID NO: 24; positions 1-459, corresponds to the sequence of natural human vitronectin, GPLG on N-terminal (protein)
chain: GPLGDQESCKGRCTEGFNVDKKCQCDELCSYYQSCCTDYTAECKPQVTRGDVFTMPEDEYTVYDDGEEKNNATVHEQVGGPSLTSDLQAQSKGNPEQTPVLKPEEEAPAPEVGASKPEGIDSRPETLHPGRPQPPAEEELCSGKPFDAFTDLKNGSLFAFRGQYCYELDEKAVRPGYPKLIRDVWGIEGPIDAAFTRINCQGKTYLFKGSQYWRFEDGVLDPDYPRNISDGFDGIPDNVDAALALPAHSYSGRERVYFFKGKQYWEYQFQHQPSQEECEGSSLSAVFEHFAMMQRDSWEDIFELLFWGRTSAGTRQPQFISRDWHGVPGQVDAAMAGRIYISGMAPRPSLAKKQRFRHRNRKGYRSQRGHSRGRNQNSRRPSRATWLSLFSSEESNLGANNYDDYRMDWLVPATCEPIQSVFFFSGDKYYRVNLRTRRVDTVDPPYPRSIAQYWLGCPAPGHL
modifications: GPLG N-terminal extension; Synthetic peptide RCP-11
On to B2, for which the “number of cells on Day 8 of culture, as fraction of the case where RCP-1 was used” value in the data set on iPS cells [2] is reported as “about ⅓”. In addition, the “NANOG expression / maintenance of undifferentiated state” value in the data set on iPS cells [4] is “strongly expressed NANOG in the entirety of the colony”.
